Results on two molecules are retold here after patent US20250034227A1.

Assay [1] addresses HLA-A*02 tetramers with the 9 similar peptides (SimPeps, SEQ ID NOs: 59-67). The assay can be described thus: yeast display, flow cytometry, SimPep tetramer mix, 25 nM each. A general note: Flow cytometry measures light scatter and fluorescence of single cells or particles in a stream.
Assay [2] shares this target. The assay can be described thus: yeast display, 9 similar peptides, 10 nM HLA-A*02 tetramer.

B1: scTCR R76P1E1S with matured CDRb1 RPVTM (TCR)
chain: EDVEQSSFLSVREGDSAVINCTYTDSSSTYFYWYKQEPGAGLQLLTYIFSNMDMKQDQRLTVLLNKKDKHLSLRIADTQTGDSAIYFCAVKDNARLMFGDGTQLVVKPGGGGSGGGGSGGGGSGGGGSGGGGSGAVISQKPSRDIVQRGNSVTIQCQVDRPVTMMFWYRQQPGQSLTLIATANQGSEATYESGFVIDKFPISRPNLTFSTLTVSNMSPEDSSIYLCSVLGAYGYTFGSGTRLTVV
Molecule B1 displayed a yeast cells stained positive in assay [1] of 0%.

B2: scTCR CL-21753 (TCR)
chain: EDVEQSSFLSVREGDSAVINCTYTDASSTYFYWYKQEPGAGLQLLTYIFSNMDMKQDQRLTVLLNKKDKHLSLRIADTQTGDSAIYFCAVKDNARLMFGDGTQLVVKPGGGGSGGGGSGGGGSGGGGSGGGGSAVISQKPSRDIVQRGNSVTIQCQVDRPVTMMFWYRQQPGQSLTLIATAYDEGSATYESGFVIDKFPISRPNLTFSTLTVSNMSPEDSSIYLCSVLGAYGYTFGSGTRLTVV
In turn, B2 yielded a similar peptide binding, % positive cells in assay [2] of 0%.
